{
  "source": "patent US20250019448A1",
  "about": "(BIOCOMPLETE, published 2025)",
  "binders": {"B1": {"name": "#42 antibody (IgG form) (antibody, V domains shown)", "VH": "QVRLVQSGAEVKKPGASVKVSCRASGYTFASYDIHWVRQAPGQGPEWMGMINPAGGSTLYAEGFEGRLTMTRDRSMSTAYMELSSLRSEDTAVYYCARTPSQTYELDYWGQGTLVTVSS", "VL": "ETTLTQSPSSLSASVGDRVTITCRASQGIRNDLAWYQQKPGKAPKLLIYAASTLESGVPPRFSGSGSETDFTLTLIRLQPDDFATYYCLQSFSTPYTFGQGTQLTVL"}, "B2": {"name": "#47 antibody (IgG form) (antibody, V domains shown)", "VH": "QVQLVQSGGGVVQPGSSLRLSCEASGFAIGDNALNWVRQAPGKGLEWVGYIRSNSYGGTAEYAASVKGRFTISKDESKNIAYLEMNSLRAEDTAVYYCARRAHYYDGSTYNPSWYFDLWGRGTLVTVSS", "VL": "EIVLTQSPSFLSASVGDRVTITCRASQDISRRLAWYQQKPGKAPKLLIYGASNLASGVPSRFTGSGSGTEFTLTISSLQPDDFATYYCQQGYSSPRTFGQGTKVDIK"}, "B3": {"name": "#40 antibody (IgG form) (antibody, V domains shown)", "VH": "B2 VH with K74R, D106G, L124P", "VL": "B2 VL with Q38R, P80S"}},
  "note": "Positions count from the first letter of the chain named.",
  "data": [
    {"target": "T1, SMO (smoothened) protein (Homo sapiens (Human), UniProt Q99835 28-787)", "T1 construct": "Endogenous SMO on HCT116 and SKOV3 cancer cells; also called SMO in HCT116 cells; SMO receptor", "test": "flow cytometry on HCT116 cells, 10 µg antibody, Alexa 594 secondary antibody", "method": "The binding affinity of the SMO-binding antibodies in HCT116 colon cancer cells was analyzed by flow cytometry. After blocking the HCT116 cells with BSA for 30 minutes, 10 μg of the SMO-binding antibody was bound and incubated for 1 hour at room temperature. One hour later, the cells were washed with PBS, reacted with 2 μL of Alexa 594 secondary antibody, and then incubated for 1 hour at room temperature. One hour later, the cells were washed with PBS to remove non-specific binding, and the binding ability of the SMO-binding antibodies was analyzed by flow cytometry.", "values": [
      {"binder": "B1", "binding result": "binds"},
      {"binder": "B2", "binding result": "binds"},
      {"binder": "B3", "binding result": "binds"}
    ]}
  ]
}
